Square brackets hold non-standard residues; d marks the D form. Ends that are not written are not given here. pT = C[C@@H](OP(=O)(O)O)[C@H](N)C(=O)O
B6: borealin^10-109 (domain or fragment, human, UniProt Q53HL2 10-109, looked up)
chain: VAKTNSLRRRKLASFLKDFDREVEIRIKQIESDRQNLLKEVDNLYNIEILRLPKALREMNWLDYFALGGNKQALEEAATADLDITEINKLTAEAIQTPLK
notes: borealin, human, residues 10-109; Subunit in the rows of two; source: E. coli BL21-CodonPlus (DE3)-RIL, co-expressed with survivin (pETDuet-1), purified within the complex

Tests used:
[1] = target: T1, survivin (full-length, recombinant, as subunit of the CPI complexes) (human, UniProt O15392 1-142); assay: SEC-MALS; samples at 1 mg/ml on Superose 6 10/300 GL, room temperature; 100 mM NaCl, 20 mM Tris-HCl pH 8.0, 1 mM DTT, 10% glycerol; settings: both partners purified
T1 construct: survivin, human, full length; Never handled alone; stands for the subunit in the rows of two; source: E. coli BL21-CodonPlus (DE3)-RIL, co-expressed with borealin (pETDuet-1), purified within the complex
T1 sequence (O15392 whole entry, one chain of several): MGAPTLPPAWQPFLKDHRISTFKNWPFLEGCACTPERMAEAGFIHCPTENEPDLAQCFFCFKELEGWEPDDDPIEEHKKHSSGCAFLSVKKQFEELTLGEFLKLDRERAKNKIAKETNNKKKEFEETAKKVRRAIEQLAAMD

[2] = target: B6; assay: as above; settings: both partners purified
[3] = target: the molecule itself; assay: SEC; 1 mg lysate of nocodazole-arrested HeLa cells on Superose 6 10/300 at 4°C; fractions Western blotted for MKLP2 and GFP; size from calibration standards
[4] = target: CPI58 as used in ITC, SEC and ATPase assays (survivin, borealin, INCENP 1–58) (human, UniProt O15392 1-142; Q9NQS7 1-58; Q53HL2 1-280, Structural Zn2+ on survivin C57/C60/H77/C84. Survivin is taken from the authors' construct entity (entity number = survivin number + 2; leading GP tag scar left out). Borealin 10-109 is inferred from); assay: ITC; 400 µM peptide injected into 50 µM protein; 100 mM NaCl, 20 mM Tris-HCl pH 7.2, 1 mM DTT; 25°C; 1:1 binding model; settings: both partners purified
CPI58 as used in ITC, SEC and ATPase assays (survivin, borealin, INCENP 1–58) (human, UniProt O15392 1-142; Q9NQS7 1-58; Q53HL2 1-280, Structural Zn2+ on survivin C57/C60/H77/C84. Survivin is taken from the authors' construct entity (entity number = survivin number + 2; leading GP tag scar left out). Borealin 10-109 is inferred from), sequence (A2SUH6 whole entry, chain 1 of 3, one chain of several): as the sequence (O15392 whole entry, one chain of several) above

[5] = target: T2, MKLP2^557-668:CPI80 (survivin, INCENP^1-80, borealin^10-109) (human, UniProt O95235 557-668; O15392 1-142; Q9NQS7 1-80; Q53HL2 10-109); assay: as above; settings: both partners purified
T2 construct: survivin, human; INCENP, human, residues 1-80; borealin, human, residues 10-109; also called MKLP2:CPI80; not shown: His6, N-terminal, cleaved; GST, N-terminal, cleaved; copies: 2 + 2 + 2 + 2

[6] = target: T3, CPI80 (survivin, INCENP^1-80, borealin^10-109) (human, UniProt O15392 1-142; Q9NQS7 1-80; Q53HL2 10-109); assay: as above; settings: both partners purified
T3 construct: survivin, human; INCENP, human, residues 1-80; borealin, human, residues 10-109; 1:1:1 trimer by SEC-MALS; also called WT CPI80; source: E. coli BL21-CodonPlus (DE3)-RIL, purified (Glutathione Sepharose, SEC); not shown: His6, N-terminal, cleaved; GST, N-terminal, cleaved; copies: 1 + 1 + 1
T3 sequence (O15392 whole entry, chain 1 of 3, one chain of several, the tested form may be a part): as the sequence (O15392 whole entry, one chain of several) above

[7] = target: T4, CPI80^RRKKRR (CPI80 with the INCENP RRKKRR-motif replaced with alanine residues) (human, UniProt O15392 1-142; Q9NQS7 1-80; Q53HL2 10-109, RRKKRR to hexa-alanine); assay: as above; settings: both partners purified
T4 construct: survivin, human; INCENP, human, residues 1-80 with RRKKRR to hexa-alanine; borealin, human, residues 10-109 as in CPI80; not restated for this mutant; also called CPI80^RRKKRR mutant; source: E. coli BL21-CodonPlus (DE3)-RIL, purified (Glutathione Sepharose, SEC); not shown: His6, N-terminal, cleaved; GST, N-terminal, cleaved; copies: + +
T4 sequence (O15392 whole entry, change not shown, chain 1 of 3, one chain of several, the tested form may be a part): as the sequence (O15392 whole entry, one chain of several) above
T4 sequence (Q9NQS7 other isoform, or with tags, fused parts or gaps RRKKRR to hexa-alanine | RRKKRR to hexa-alanine, chain 2 of 3, one chain of several): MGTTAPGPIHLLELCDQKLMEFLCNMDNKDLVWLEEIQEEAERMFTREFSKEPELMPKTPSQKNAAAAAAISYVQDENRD

[8] = target: CPI58 as used in ITC, SEC and ATPase assays (survivin, borealin, INCENP 1–58) (human, UniProt O15392 1-142; Q9NQS7 1-58; Q53HL2 1-280); assay: as above; settings: both partners purified
[9] = target: the molecule itself; assay: SEC-MALS; samples at 1 mg/ml on Superose 6 10/300 GL, room temperature; 100 mM NaCl, 20 mM Tris-HCl pH 8.0, 1 mM DTT, 10% glycerol
[10] = target: T5, CPI80^(Survivin E65A-H80A) (human, UniProt O15392 1-142; Q9NQS7 1-80; Q53HL2 10-109, E65A | H80A); assay: SEC; CPC variants and MKLP2^557-668 mixed 1:1, 30 min on ice in 100 mM NaCl, 20 mM Tris-HCl pH 8.0, 1 mM DTT, 10% glycerol; analytical Superdex 200 increase 10/300 at 4°C; fractions on stained gels; settings: both partners purified
T5 construct: survivin, human, E65A H80A; INCENP, human, residues 1-80; borealin, human, residues 10-109 as in CPI80; not restated for this mutant; also called CPI80^E65A-H80A; survivin^E65A-H80A CPI80; source: E. coli BL21-CodonPlus (DE3)-RIL, purified (Glutathione Sepharose, SEC); not shown: His6, N-terminal, cleaved; GST, N-terminal, cleaved; copies: + +
T5 sequence (O15392 whole entry E65A/H80A, the tested form may be a part, one chain of several): as the sequence (O15392 whole entry, one chain of several) above, with E65A, H80A counted along it

B1: INCENP^1-80 (recombinant) (domain or fragment, human, UniProt Q9NQS7 1-80, looked up)
chain: MGTTAPGPIHLLELCDQKLMEFLCNMDNKDLVWLEEIQEEAERMFTREFSKEPELMPKTPSQKNRRKKRRISYVQDENRD
notes: INCENP, human, residues 1-80; Subunit in the rows of two; also called I^80; source: E. coli BL21-CodonPlus (DE3)-RIL, purified within the complex; not shown: His6, N-terminal, cleaved; GST, N-terminal, cleaved
stoichiometry N [1]: 1 | stoichiometry N [2]: 1

B2: GFP-MKLP2 Δ636-652 (natural protein, human, UniProt O95235 1-890, looked up)
chain: MSQGILSPPAGLLSDDDVVVSPMFESTAADLGSVVRKNLLSDCSVVSTSLEDKQQVPSEDSMEKVKVYLRVRPLLPSELERQEDQGCVRIENVETLVLQAPKDSFALKSNERGIGQATHRFTFSQIFGPEVGQASFFNLTVKEMVKDVLKGQNWLIYTYGVTNSGKTHTIQGTIKDGGILPRSLALIFNSLQGQLHPTPDLKPLLSNEVIWLDSKQIRQEEMKKLSLLNGGLQEEELSTSLKRSVYIESRIGTSTSFDSGIAGLSSISQCTSSSQLDETSHRWAQPDTAPLPVPANIRFSIWISFFEIYNELLYDLLEPPSQQRKRQTLRLCEDQNGNPYVKDLNWIHVQDAEEAWKLLKVGRKNQSFASTHLNQNSSRSHSIFSIRILHLQGEGDIVPKISELSLCDLAGSERCKDQKSGERLKEAGNINTSLHTLGRCIAALRQNQQNRSKQNLVPFRDSKLTRVFQGFFTGRGRSCMIVNVNPCASTYDETLHVAKFSAIASQLVHAPPMQLGFPSLHSFIKEHSLQVSPSLEKGAKADTGLDDDIENEADISMYGKEELLQVVEAMKTLLLKERQEKLQLEMHLRDEICNEMVEQMQQREQWCSEHLDTQKELLEEMYEEKLNILKESLTSALLQEARQQSVAHQQSGSELALRRSQRLAASASTQQLQEVKAKLQQCKAELNSTTEELHKYQKMLEPPPSAKPFTIDVDKKLEEGQKNIRLLRTELQKLGESLQSAERACCHSTGAGKLRQALTTCDDILIKQDQTLAELQNNMVLVKLDLRKKAACIAEQYHTVLKLQGQVSAKKRLGTNQENQQPNQQPPGKKPFLRNLLPRTPTCQSSTDCSPYARILRSRRSPLLKSGPFGKKY
notes: source: HeLa, transfected, in lysate; not shown: EGFP, N-terminal, kept
stoichiometry N [3]: 2

B3: H3 (1–12) peptide (peptide)
peptide: ARTKQTARKSTG
notes: histone H3 residues 1-12; also called H3T3 nonphosphopeptide; nonphosphorylated H3 peptide; source: synthetic peptide (Peptide Protein Research Ltd)
Kd [4]: 5600 nM | Kd [5]: 2800 ± 300 nM | Kd [6]: 4600 nM | Kd [7]: 3300 ± 500 nM

B4: H3pT3 (1–12) phosphopeptide (peptide)
peptide: AR[pT]KQTARKSTG
notes: also called pH3T3; H3pT3 phosphopeptide; source: synthetic peptide (Peptide Protein Research Ltd)
Kd [8]: 800 nM | Kd [5]: < 1000 nM | Kd [6]: 1100 nM | Kd [7]: 600 ± 300 nM

B5: MKLP2^557-668 (domain or fragment, human, UniProt O95235 557-668, looked up)
chain: MYGKEELLQVVEAMKTLLLKERQEKLQLEMHLRDEICNEMVEQMQQREQWCSEHLDTQKELLEEMYEEKLNILKESLTSFYQEEIQERDEKIEELEALLQEARQQSVAHQQS
notes: source: E. coli BL21-CodonPlus (DE3)-RIL, purified (Glutathione Sepharose, SEC); not shown: His6, N-terminal, cleaved; GST, N-terminal, cleaved
stoichiometry N [9]: 2 | binding result [10]: binds

B6
stoichiometry N [1]: 1

From PMC7337490, “Molecular basis of MKLP2-dependent Aurora B transport from chromatin to the anaphase central spindle” (The Journal of Cell Biology, 2020)
